B1: FBXO3 (parent)
chain: GGFPIIRDQIFRYVHDPECVATTG

Variants of: B1
Assay: protein stability index of a GFP-peptide fusion (GPS, HEK-293T) (PSI 1-6); higher = more stable
Conditions: c terminus: a fixed tail appended
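Further: lentivirally expressed fusions sorted by FACS into six bins by GFP to DsRed ratio, PSI derived from sequencing read proportions per bin multiplied by bin number.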

First: GGFPIIRDQIFRYVADPECVATTG
Second: GGFPIIRDQIFRYVIDPECVATTG
The protein stability index of the first is higher: 1.95 for the first, 1.62 for the second.

First: GGFPIIRDQIFRYVDDPECVATTG
Second: GGFPIIRDQIFRYVGDPECVATTG
The protein stability index of the first is higher: 2.41 for the first, 1.78 for the second.

Compared with GGFPIIRDQIFRYVSDPECVATTG, GGFPIIRDQIFRYVYDPECVATTG is higher in protein stability index: 1.5 for the first, 1.74 for the second.

First: GGFPIIRDQIFRYVCDPECVATTG
Second: GGFPIIRDQIFRYVFDPECVATTG
The protein stability index of the first is higher: 1.97 for the first, 1.85 for the second.

Compared with GGFPIIRDQIFVYVHDPECVATTG, GGFPIIRDQIFHYVHDPECVATTG is higher in protein stability index: 1.22 for the first, 2.69 for the second.

First: GGFPIIRDQIFPYVHDPECVATTG
Second: GGFPIIRDQIFCYVHDPECVATTG
The protein stability index of the first is higher: 2.82 for the first, 1.75 for the second.

Compared with GGFPIIRDQIFYYVHDPECVATTG, GGFPIIRDQIFWYVHDPECVATTG is lower in protein stability index: 1.64 for the first, 1.58 for the second.

First: GGFPIIRDQIFFYVHDPECVATTG
Second: GGFPIIRDQMFRYVHDPECVATTG
The protein stability index of the first is lower: 1.92 for the first, 2.44 for the second.

Going from GGFPIIRDQPFRYVHDPECVATTG to GGFPIIRDQCFRYVHDPECVATTG, the protein stability index falls from 2.6 to 2.19.

First: GGFPIIRDQWFRYVHDPECVATTG
Second: GGFPIIRDQNFRYVHDPECVATTG
The protein stability index of the first is lower: 1.74 for the first, 3.3 for the second.

GGFPIIRDQLFRYVHDPECVATTG and GGFPIIRDQRFRYVHDPECVATTG are the same in protein stability index: 2.17 for the first, 2.17 for the second.

Going from GGFPIIRDQAFRYVHDPECVATTG to GGFPIIRDQQFRYVHDPECVATTG, the protein stability index rises from 2.38 to 2.75.

First: GGFPIIRDQIFRYVHDPECVATMG
Second: GGFPIIRDQIFRYVHDPECVATEG
The protein stability index of the first is lower: 1.73 for the first, 2.09 for the second.

Compared with GGFPIIRDQIFRYVHDPECVATDG, GGFPIIRDQIFRYVHDPECVATYG is lower in protein stability index: 1.66 for the first, 1.61 for the second.

Going from GGFPIIRDQIFRYVHDPECVATPG to GGFPIIRDQIFRYVHDPECVATFG, the protein stability index rises from 1.71 to 2.25.

Going from GGFPIIRDQIFRYVHDPECVATCG to GGFPIIRDQIFRYVHDPECVATRG, the protein stability index falls from 1.91 to 1.64.

First: GGFPIIRDQIFRYVHDPECVATQG
Second: GGFPIIRDQIFRYVHDPECVATVG
The protein stability index of the first is higher: 1.96 for the first, 1.61 for the second.

First: GGQPIIRDQIFRYVHDPECVATTG
Second: GGLPIIRDQIFRYVHDPECVATTG
The protein stability index of the first is higher: 2.58 for the first, 1.94 for the second.

Compared with GGGPIIRDQIFRYVHDPECVATTG, GGPPIIRDQIFRYVHDPECVATTG is higher in protein stability index: 2.55 for the first, 2.76 for the second.

Compared with GGCPIIRDQIFRYVHDPECVATTG, GGYPIIRDQIFRYVHDPECVATTG is lower in protein stability index: 2.14 for the first, 1.57 for the second.

First: GGFPIIRDQIFRYVHDPECVATTN
Second: GGFPIIRDQIFRYVHDPECVATTL
The protein stability index of the first is higher: 2.31 for the first, 1.96 for the second.

Going from GGFPIIRDQIFRYVHDPECVATTA to GGFPIIRDQIFRYVHDPECVATTV, the protein stability index falls from 1.83 to 1.69.

First: GGFPIIRDQIFRYVHDPECVATTE
Second: GGFPIIRDQIFRYVHDPECVATTC
The protein stability index of the first is higher: 2.22 for the first, 1.7 for the second.

First: GGFPIIRDQIFRYVHDPECVATTW
Second: GGFPIIRDQIFRYTHDPECVATTG
The protein stability index of the first is lower: 1.61 for the first, 2.5 for the second.

First: GGFPIIRDQIFRYWHDPECVATTG
Second: GGFPIIRDQIFRYQHDPECVATTG
The protein stability index of the first is lower: 1.94 for the first, 3.11 for the second.

First: GGFPIIRDQIFRYGHDPECVATTG
Second: GGFPIIRDQIFRYLHDPECVATTG
The protein stability index of the first is higher: 2.78 for the first, 2.28 for the second.

Going from GGFPIIRDQIFRYCHDPECVATTG to GGFPIIRDQIFRYRHDPECVATTG, the protein stability index rises from 1.93 to 2.94.

Going from GGFPIWRDQIFRYVHDPECVATTG to GGFPICRDQIFRYVHDPECVATTG, the protein stability index rises from 1.82 to 1.96.

Compared with GGFPIARDQIFRYVHDPECVATTG, GGFPIPRDQIFRYVHDPECVATTG is lower in protein stability index: 2.57 for the first, 2.35 for the second.

Compared with GGFPIQRDQIFRYVHDPECVATTG, GGFPIFRDQIFRYVHDPECVATTG is lower in protein stability index: 2.69 for the first, 1.46 for the second.

Going from GGFPIERDQIFRYVHDPECVATTG to GGFPISRDQIFRYVHDPECVATTG, the protein stability index falls from 3.52 to 2.44.

Compared with GGFPIGRDQIFRYVHDPECVATTG, GGFPIHRDQIFRYVHDPECVATTG is higher in protein stability index: 2.23 for the first, 2.32 for the second.

First: GHFPIIRDQIFRYVHDPECVATTG
Second: GYFPIIRDQIFRYVHDPECVATTG
The protein stability index of the first is lower: 1.76 for the first, 1.78 for the second.

Going from GNFPIIRDQIFRYVHDPECVATTG to GVFPIIRDQIFRYVHDPECVATTG, the protein stability index rises from 2.28 to 2.5.

Compared with GTFPIIRDQIFRYVHDPECVATTG, GDFPIIRDQIFRYVHDPECVATTG is higher in protein stability index: 2.19 for the first, 3.02 for the second.

First: GPFPIIRDQIFRYVHDPECVATTG
Second: GRFPIIRDQIFRYVHDPECVATTG
The protein stability index of the first is lower: 2.38 for the first, 2.41 for the second.

First: GGFPIIRDQIFRIVHDPECVATTG
Second: GGFPIIRDQIFRRVHDPECVATTG
The protein stability index of the first is lower: 2.39 for the first, 3.22 for the second.

First: GGFPIIRDQIFREVHDPECVATTG
Second: GGFPIIRDQIFRVVHDPECVATTG
The protein stability index of the first is higher: 3.96 for the first, 2.8 for the second.

First: GGFPIIRDQIFRQVHDPECVATTG
Second: GGFPIIRDQIFRWVHDPECVATTG
The protein stability index of the first is higher: 3.65 for the first, 2.18 for the second.

Going from GGFPIIRDQIFRLVHDPECVATTG to GGFPIIRDQIFRHVHDPECVATTG, the protein stability index falls from 2.51 to 2.28.

Compared with GGFPIIRDQIFRTVHDPECVATTG, GGFPIIRDQIFRFVHDPECVATTG is lower in protein stability index: 3.34 for the first, 1.75 for the second.

Going from GGFPIIRYQIFRYVHDPECVATTG to GGFPIIRKQIFRYVHDPECVATTG, the protein stability index falls from 3.32 to 2.39.

First: GGFPIIRTQIFRYVHDPECVATTG
Second: GGFPIIRPQIFRYVHDPECVATTG
The protein stability index of the first is lower: 1.24 for the first, 1.27 for the second.

First: GGFPIIREQIFRYVHDPECVATTG
Second: NGFPIIRDQIFRYVHDPECVATTG
The protein stability index of the first is lower: 1.52 for the first, 2.4 for the second.

Compared with FGFPIIRDQIFRYVHDPECVATTG, LGFPIIRDQIFRYVHDPECVATTG is higher in protein stability index: 1.55 for the first, 1.64 for the second.

Going from AGFPIIRDQIFRYVHDPECVATTG to WGFPIIRDQIFRYVHDPECVATTG, the protein stability index falls from 2.29 to 1.73.

Going from GGFPIIRDQIFRYVHDPQCVATTG to GGFPIIRDQIFRYVHDPKCVATTG, the protein stability index rises from 1.28 to 2.38.
